Experimental data: US20190328900A1 (GlaxoSmithKline, published 2019)
“And” between values parts separate entries of the source, which are not always exact repeats. Identical values can stand only once.

molecular target: T1, HIV gp160 envelope glycoprotein on pseudotyped virus (clone not named) (HIV); assay: cell-based or functional assay

| Binder | IC50 (N = 1), pseudotyped virus (PSV) infection, luciferase | IC50 (N = 2), pseudotyped virus (PSV) infection, luciferase |
| --- | --- | --- |
| VRC01-SA antibody-drug conjugate (antibody, human IgG1, V domains shown, payload-linker SA conjugated to lysines; sites and chain not stated; payload-linker SA (short linker payload A, succinimidyl ester) conjugated to lysines; sites and chain not stated; MS DAR 3.0) VH: QVQLVQSGGQMKKPGESMRISCRASGYEFIDCTLNWIRLAPGKRPEWMGWLKPRGGAVNYARPLQGRVTMTRDVYSDTAFLELRSLTVDDTAVYFCTRGKNCDYNWDFEHWGRGTPVIVSS VL: EIVLTQSPGTLSLSPGETAIISCRTSQYGSLAWYQQRPGQAPRLVIYSGSTRAAGIPDRFSGSRWGPDYNLTISNLESGDFGVYYCQQYEFFGQGTKVQVDI | ~2.7 nM and 0.418 µg/mL | 0.226 µg/mL and ~1.5 nM |
| VRC01-LB antibody-drug conjugate (antibody, human IgG1, V domains shown, payload-linker LB conjugated to lysines; sites and chain not stated; payload-linker LB (long linker payload B, succinimidyl ester) conjugated to lysines; sites and chain not stated; MS DAR 3.8) VH: QVQLVQSGGQMKKPGESMRISCRASGYEFIDCTLNWIRLAPGKRPEWMGWLKPRGGAVNYARPLQGRVTMTRDVYSDTAFLELRSLTVDDTAVYFCTRGKNCDYNWDFEHWGRGTPVIVSS VL: EIVLTQSPGTLSLSPGETAIISCRTSQYGSLAWYQQRPGQAPRLVIYSGSTRAAGIPDRFSGSRWGPDYNLTISNLESGDFGVYYCQQYEFFGQGTKVQVDI | 0.526 µg/mL and ~3.4 nM | ~1.9 nM |
| VRC01-SB antibody-drug conjugate (antibody, human IgG1, V domains shown, payload-linker SB conjugated to lysines; sites and chain not stated; payload-linker SB (short linker payload B, succinimidyl ester) conjugated to lysines; sites and chain not stated; MS DAR 3.9) VH: QVQLVQSGGQMKKPGESMRISCRASGYEFIDCTLNWIRLAPGKRPEWMGWLKPRGGAVNYARPLQGRVTMTRDVYSDTAFLELRSLTVDDTAVYFCTRGKNCDYNWDFEHWGRGTPVIVSS VL: EIVLTQSPGTLSLSPGETAIISCRTSQYGSLAWYQQRPGQAPRLVIYSGSTRAAGIPDRFSGSRWGPDYNLTISNLESGDFGVYYCQQYEFFGQGTKVQVDI | 0.617 µg/mL and ~4 nM | 0.772 µg/mL |
| VRC01 broadly neutralizing antibody (antibody, human IgG1, V domains shown) VH: QVQLVQSGGQMKKPGESMRISCRASGYEFIDCTLNWIRLAPGKRPEWMGWLKPRGGAVNYARPLQGRVTMTRDVYSDTAFLELRSLTVDDTAVYFCTRGKNCDYNWDFEHWGRGTPVIVSS VL: EIVLTQSPGTLSLSPGETAIISCRTSQYGSLAWYQQRPGQAPRLVIYSGSTRAAGIPDRFSGSRWGPDYNLTISNLESGDFGVYYCQQYEFFGQGTKVQVDI | ~667 nM | ~667 nM |
| VRC01-LA antibody-drug conjugate (antibody, human IgG1, V domains shown, payload-linker LA conjugated to lysines; sites and chain not stated; payload-linker LA (long linker payload A, succinimidyl ester) conjugated to lysines; sites and chain not stated; MS DAR 3.4) VH: QVQLVQSGGQMKKPGESMRISCRASGYEFIDCTLNWIRLAPGKRPEWMGWLKPRGGAVNYARPLQGRVTMTRDVYSDTAFLELRSLTVDDTAVYFCTRGKNCDYNWDFEHWGRGTPVIVSS VL: EIVLTQSPGTLSLSPGETAIISCRTSQYGSLAWYQQRPGQAPRLVIYSGSTRAAGIPDRFSGSRWGPDYNLTISNLESGDFGVYYCQQYEFFGQGTKVQVDI | 0.0753 µg/mL and ~0.5 nM | 0.0413 µg/mL and ~0.27 nM |

molecular target: T1, HIV gp160 envelope glycoprotein on …; assay: cell-based or functional assay; remark: another data set of the same source

| Binder | IC50 (N = 1), pseudotyped virus (PSV) infection, luciferase | IC50 (N = 2), pseudotyped virus (PSV) infection, luciferase |
| --- | --- | --- |
| VRC01-LA-LB dual-payload antibody-drug conjugate (antibody, human IgG1, V domains shown, payload-linkers LA and LB conjugated to lysines; sites and chain not stated; payload-linkers LA and LB conjugated to lysines; sites and chain not stated; MS DAR 1.6 (LA) and 1.2 (LB)) VH: QVQLVQSGGQMKKPGESMRISCRASGYEFIDCTLNWIRLAPGKRPEWMGWLKPRGGAVNYARPLQGRVTMTRDVYSDTAFLELRSLTVDDTAVYFCTRGKNCDYNWDFEHWGRGTPVIVSS VL: EIVLTQSPGTLSLSPGETAIISCRTSQYGSLAWYQQRPGQAPRLVIYSGSTRAAGIPDRFSGSRWGPDYNLTISNLESGDFGVYYCQQYEFFGQGTKVQVDI | 0.154 µg/mL | 0.107 µg/mL and ~0.7 nM |
| VRC01-LA-SB dual-payload antibody-drug conjugate (antibody, human IgG1, V domains shown, payload-linkers LA and SB conjugated to lysines; sites and chain not stated; payload-linkers LA and SB conjugated to lysines; sites and chain not stated; MS DAR 1.6 (LA) and 1.3) VH: QVQLVQSGGQMKKPGESMRISCRASGYEFIDCTLNWIRLAPGKRPEWMGWLKPRGGAVNYARPLQGRVTMTRDVYSDTAFLELRSLTVDDTAVYFCTRGKNCDYNWDFEHWGRGTPVIVSS VL: EIVLTQSPGTLSLSPGETAIISCRTSQYGSLAWYQQRPGQAPRLVIYSGSTRAAGIPDRFSGSRWGPDYNLTISNLESGDFGVYYCQQYEFFGQGTKVQVDI | 0.104 µg/mL and ~0.7 nM | 0.106 µg/mL and ~0.7 nM |
